Data from patent US20190300589A1 (GREENOVATION BIOTECH, published 2019).

B1: MFHR1 (His-tag - FHR1(SCR1-2)-FH(SCR1-4)-FH(SCR19-20)) (other)
chain: ADLGSHHHHHHHHHHDYDRSFCDFPKINHGILYDEEKYKPFSQVPTGEVFYYSCEYNFVSPSKSFWTRITCTEEGWSPTPKCLRLCFFPFVENGHSESSGQTHLEGDTVQIICNTGYRLQNNENNISCVERGWSTPPKCRSEDCNELPPRRNTEILTGSWSDQTYPEGTQAIYKCRPGYRSLGNVIMVCRKGEWVALNPLRKCQKRPCGHPGDTPFGTFTLTGGNVFEYGVKAVYTCNEGYQLLGEINYRECDTDGWTNDIPICEVVKCLPVTAPENGKIVSSAMEPDREYHFGQAVRFVCNSGYKIEGDEEMHCSDDGFWSKEKPKCVEISCKSPDVINGSPISQKIIYKENERFQYKCNMGYEYSERGDAVCTESGWRPLPSCEDSTGKCGPPPPIDNGDITSFPLSVYAPASSVEYQCQNLYQLEGNKRITCRNGQWSEPPKCLHPCVISREIMENYNIALRWTAKQKLYSRTGESVEFVCKRGYRLSSRSHTLRTTCWDGKLEYPTCAKR
notes: Recombinant fusion protein expressed in SF9 insect cells (baculovirus); By size exclusion chromatography it runs mostly as a multimer; also called MFHR1 with His tag
B2: human plasma derived Factor H (hFH) (other)
chain: EDCNELPPRRNTEILTGSWSDQTYPEGTQAIYKCRPGYRSLGNVIMVCRKGEWVALNPLRKCQKRPCGHPGDTPFGTFTLTGGNVFEYGVKAVYTCNEGYQLLGEINYRECDTDGWTNDIPICEVVKCLPVTAPENGKIVSSAMEPDREYHFGQAVRFVCNSGYKIEGDEEMHCSDDGFWSKEKPKCVEISCKSPDVINGSPISQKIIYKENERFQYKCNMGYEYSERGDAVCTESGWRPLPSCEEKSCDNPYIPNGDYSPLRIKHRTGDEITYQCRNGFYPATRGNTAKCTSTGWIPAPRCTLKPCDYPDIKHGGLYHENMRRPYFPVAVGKYYSYYCDEHFETPSGSYWDHIHCTQDGWSPAVPCLRKCYFPYLENGYNQNYGRKFVQGKSIDVACHPGYALPKAQTTVTCMENGWSPTPRCIRVKTCSKSSIDIENGFISESQYTYALKEKAKYQCKLGYVTADGETSGSITCGKDGWSAQPTCIKSCDIPVFMNARTKNDFTWFKLNDTLDYECHDGYESNTGSTTGSIVCGYNGWSDLPICYERECELPKIDVHLVPDRKKDQYKVGEVLKFSCKPGFTIVGPNSVQCYHFGLSPDLPICKEQVQSCGPPPELLNGNVKEKTKEEYGHSEVVEYYCNPRFLMKGPNKIQCVDGEWTTLPVCIVEESTCGDIPELEHGWAQLSSPPYYYGDSVEFNCSESFTMIGHRSITCIHGVWTQLPQCVAIDKLKKCKSSNLIILEEHLKNKKEFDHNSNIRYRCRGKEGWIHTVCINGRWDPEVNCSMAQIQLCPPPPQIPNSHNMTTTLNYRDGEKVSVLCQENYLIQEGEEITCKDGRWQSIPLCVEKIPCSQPPQIEHGTINSSRSSQESYAHGTKLSYTCEGGFRISEENETTCYMGKWSSPPQCEGLPCKSPPEISHGVVAHMSDSYQYGEEVTYKCFEGFGIDGPAIAKCLGEKWSHPPSCIKTDCLSLPSFENAIPMGEKKDVYKAGEQVTYTCATYYKMDGASNVTCINSRWTGRPTCRDTSCVNPPTVQNAYIVSRQMSKYPSGERVRYQCRSPYEMFGDEEVMCLNGNWTEPPQCKDSTGKCGPPPPIDNGDITSFPLSVYAPASSVEYQCQNLYQLEGNKRITCRNGQWSEPPKCLHPCVISREIMENYNIALRWTAKQKLYSRTGESVEFVCKRGYRLSSRSHTLRTTCWDGKLEYPTCAKR
notes: Purified from human plasma, so the mature protein; also called FHplasma; plasma purified FH

Experiments:
[1] = biological target: the molecule itself; experiment: size exclusion chromatography (Superdex 200 10/300 GL), self-association
Experimental: FIG. 5. Multimeric complexes increase AP regulatory activity of MFHR1 in human serum. A) Size exclusion chromatography (Superdex 200 10/300 GL) of bovine serum albumin (BSA), serum plasma derived FH (hFH) and MFHR1. The three compositions of BSA mixture presented different retention volumes based on molecular mass, which was I. BSA trimer (198 kDa, 10.35 ml), II. BSA dimer (132 kDa, 11.45 ml) and III. BSA monomer (66 kDa, 13.4 ml). […] Theoretical trimer (II. 10.7), dimer (III. 11.4) intermediates (IV.-V.) or monomeric (IV. 13.5) MFHR1 are indicated in the elution profile. B) Analysis of MFHR1 after elution from SEC column as performed in A. 20 μl protein from fractions was loaded on a 10% SDS-PAGE and silver stained C) Afterwards, single or pooled MFHR1 SEC fractions were added into human serum at 10 nM and AP activation was proceeded by incubation in LPS coated wells using AP specific buffer conditions. Regulatory efficiency of MFHR1 fractions was analyzed by measuring C5b-9 complex formation. AP activity of untreated control serum was set to 100%.

[2] = biological target: C5 (complement component C5) (UniProt P01031 19-673; P01031 678-1676); experiment: ELISA, hFH (133 nM) immobilised, C5 in solution, detected with monoclonal C5 antibodies
Sequence of C5 (complement component C5) (P01031 19-673 limits assumed, chain 1 of 2): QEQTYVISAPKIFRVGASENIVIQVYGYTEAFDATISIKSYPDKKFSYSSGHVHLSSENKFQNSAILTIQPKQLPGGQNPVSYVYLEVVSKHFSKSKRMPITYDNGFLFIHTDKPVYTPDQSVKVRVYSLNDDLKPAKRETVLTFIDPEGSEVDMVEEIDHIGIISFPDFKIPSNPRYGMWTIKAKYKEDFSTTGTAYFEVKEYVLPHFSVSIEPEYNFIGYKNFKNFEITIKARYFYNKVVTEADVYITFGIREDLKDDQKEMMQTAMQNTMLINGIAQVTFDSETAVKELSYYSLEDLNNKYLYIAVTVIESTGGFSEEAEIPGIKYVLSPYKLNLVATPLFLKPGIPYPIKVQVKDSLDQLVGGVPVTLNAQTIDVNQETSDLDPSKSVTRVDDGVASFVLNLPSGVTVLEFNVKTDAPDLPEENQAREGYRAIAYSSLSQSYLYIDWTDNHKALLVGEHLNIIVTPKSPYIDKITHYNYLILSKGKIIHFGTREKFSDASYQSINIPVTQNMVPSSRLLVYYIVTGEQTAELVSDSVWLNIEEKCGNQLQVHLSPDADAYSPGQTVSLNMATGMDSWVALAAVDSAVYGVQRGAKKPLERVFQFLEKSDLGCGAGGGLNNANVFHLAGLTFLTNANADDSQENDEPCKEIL
Sequence of C5 (complement component C5) (P01031 678-1676 limits assumed, chain 2 of 2): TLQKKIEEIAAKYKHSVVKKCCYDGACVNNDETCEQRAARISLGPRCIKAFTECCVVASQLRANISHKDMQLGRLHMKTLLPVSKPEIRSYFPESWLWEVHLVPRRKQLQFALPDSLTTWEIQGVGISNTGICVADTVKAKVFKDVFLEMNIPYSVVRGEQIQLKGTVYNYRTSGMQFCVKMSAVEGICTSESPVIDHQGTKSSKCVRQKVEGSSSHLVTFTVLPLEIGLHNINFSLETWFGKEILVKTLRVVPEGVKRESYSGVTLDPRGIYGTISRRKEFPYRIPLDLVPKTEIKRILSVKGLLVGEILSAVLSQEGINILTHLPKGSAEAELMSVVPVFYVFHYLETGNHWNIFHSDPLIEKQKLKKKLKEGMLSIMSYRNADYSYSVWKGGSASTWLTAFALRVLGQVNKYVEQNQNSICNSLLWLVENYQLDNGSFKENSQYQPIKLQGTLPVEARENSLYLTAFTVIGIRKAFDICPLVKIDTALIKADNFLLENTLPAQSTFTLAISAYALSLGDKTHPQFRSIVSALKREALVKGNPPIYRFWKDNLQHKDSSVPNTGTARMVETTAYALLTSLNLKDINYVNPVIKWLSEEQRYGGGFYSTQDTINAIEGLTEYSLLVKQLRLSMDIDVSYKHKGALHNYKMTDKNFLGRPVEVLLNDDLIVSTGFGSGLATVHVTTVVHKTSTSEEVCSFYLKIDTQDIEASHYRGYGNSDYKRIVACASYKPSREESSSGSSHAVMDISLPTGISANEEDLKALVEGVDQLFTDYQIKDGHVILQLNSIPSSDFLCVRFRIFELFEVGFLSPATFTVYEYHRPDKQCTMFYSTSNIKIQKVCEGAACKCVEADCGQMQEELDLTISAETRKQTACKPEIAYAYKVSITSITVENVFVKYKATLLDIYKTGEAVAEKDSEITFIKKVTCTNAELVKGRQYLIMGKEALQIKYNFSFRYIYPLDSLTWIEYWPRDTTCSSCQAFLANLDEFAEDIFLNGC
Experimental: FIG. 3. MFHR1 binds C5 and regulates terminal pathway activation by inhibition of the C5 convertase/C5 cleavage and MAC formation. A) MFHR1 binds to C5 as determined by ELISA. Equimolar amounts of MFHR1, full length FHR1, hFH or BSA (133 nM) were immobilized to Nunc plates and incubated with increasing concentrations (10, 20, 40 μg/ml) of C5. Binding was detected using monoclonal C5 antibodies and HRP-labelled secondary antibodies. Data are mean±SD from n=3 experiments B) MFHR1 inhibits AP activation by blockade of C5 cleavage. Cobra venom factor (CVF) C5 convertase was generated on sheep erythrocytes (sE) after adding Factor B (FB) and Factor D (FD). Hemolysis was induced after adding C5, C6, C7, C8 and C9 components and detected at 414 nm. […] C) MFHR1 inhibits formation of the membrane attack complex (MAC) on sE. MAC formation on sE was induced by incubation with C5b6, C7, C8 and C9 components and detected by hemolysis of cells. Preincubation of C5b6 with MFHR1, FHR1 or Eculizumab inhibited hemolysis at significant levels compared to hFH or BSA. […] In B and C control without regulator (w/o) was set as 100%. All data represent mean values ±SD of 3 separate experiments. ***P<0.001 vs. w/o control, one-way ANOVA with Bonferroni multiple comparison test.

Binder | binding result [1] | binding result [2]
B1 | binds | 
B2 |  | no binding (tested: 10, 20, 40 µg/ml of C5)
